Results: patent publication US20140087995A1 (published 2014)
Blank lines part the entries; values can stand above or below the binder they belong to. Numbered stars: 1 amine (or outer) side, 2 acyl side, 3 side chain; on linkers, the order of the positions; unused ones are H or OH. Bridge positions count the residues as written; N and C are the ends. * marks the point of attachment. C20 diacid = O=C(O)CCCCCCCCCCCCCCCCCCC(=O)*; γGlu = O=C(O)[C@H](CCC(=O)[*:2])N[*:1]

Tests used:
[1] = target: T1, human calcitonin receptor (human, UniProt P30988 25-474); test: ratio of IC50 at hCTR to IC50 at the human amylin receptor (reference)
T1 construct: whole, on cells; also called hCTR; hCT
T1 sequence (looked up): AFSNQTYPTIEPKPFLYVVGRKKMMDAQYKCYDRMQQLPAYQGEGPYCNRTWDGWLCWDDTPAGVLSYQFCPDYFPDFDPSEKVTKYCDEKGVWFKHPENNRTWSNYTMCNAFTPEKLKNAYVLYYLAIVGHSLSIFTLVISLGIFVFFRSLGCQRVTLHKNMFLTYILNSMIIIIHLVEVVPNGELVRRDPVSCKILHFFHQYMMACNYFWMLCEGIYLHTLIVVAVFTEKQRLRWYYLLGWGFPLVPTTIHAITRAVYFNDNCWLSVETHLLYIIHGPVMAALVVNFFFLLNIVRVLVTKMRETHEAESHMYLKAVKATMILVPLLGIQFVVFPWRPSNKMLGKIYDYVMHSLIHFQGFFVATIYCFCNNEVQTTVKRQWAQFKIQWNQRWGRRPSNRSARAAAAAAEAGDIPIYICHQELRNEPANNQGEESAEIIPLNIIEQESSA
Procedure: The resulting pellet was resuspended, homogenized and centrifuged (20.000 rpm, 15 min) in a buffer containing 20 mM Na-HEPES and 0.1 mM EDTA (pH 7.4, buffer 2). The resulting pellet was resuspended in buffer 2 and protein concentration was measured (BCA protein Assay, Pierce). The homogenate was kept cold during the whole procedure. The membranes were kept at −80° C. until use. The assay was performed in a 384 well Optiplate (PerkinElmer) in a total volume of 40 ul. Membranes were mixed with SPA beads. Final concentration of membranes 35 ng/μL final and SPA beads was 0.05 mg/well. Test-compounds were dissolved in DMSO and further diluted in assay buffer (50 mM Hepes, pH 7.4, 1 mM CaCl2, 5 mM MgCl₂, 0.1% OA and 0.02% Tween20). […] The final mixture was incubated with shaking at 400 rpm for 120 min at 25° C. prior to centrifugation (1500 rpm, 10 min). Samples were analyzed on TopCounter™ (Packard). The IC₅₀ was calculated using (one site binding competition analysis) GraphPad Prism5 as a measure of receptor affinity.
Membranes were prepared in the following way; the cells were rinsed with PBS and incubated with Versene for approximately 5 min before harvesting. The cells were flushed with PBS and the cell-suspension was centrifuged for 5 min at 1000 rpm. Cells were homogenized (Ultrathurrax) in a buffer containing 20 mM Na-HEPES and 10 mM EDTA (pH 7.4) and centrifuged at 20.000 rpm for 15 min. The resulting pellet was resuspended, homogenized and centrifuged (20.000 rpm, 15 min) in a buffer containing 20 mM Na-HEPES and 0.1 mM EDTA (pH 7.4, buffer 2). The resulting pellet was resuspended in buffer 2 and protein concentration was measured (BCA protein Assay, Pierce). The homogenate was kept cold during the whole procedure. The membranes were kept at −80° C. until use. Assay was performed in a 384 well Optiplate (PerkinElmer) in a total volume of 40 ul. Membranes were mixed with SPA beads.

[2] = target: T1, human calcitonin receptor; test: SPA competition binding, membranes with human calcitonin receptor, displacement of 125I-calcitonin (Assay VII)
Procedure: Membranes were prepared in the following way; the cells were rinsed with PBS and incubated with Versene for approximately 5 min before harvesting. The cells were flushed with PBS and the cell-suspension was centrifuged for 5 min at 1000 rpm. Cells were homogenized (Ultrathurrax) in a buffer containing 20 mM Na-HEPES and 10 mM EDTA (pH 7.4) and centrifuged at 20.000 rpm for 15 min. The resulting pellet was resuspended, homogenized and centrifuged (20.000 rpm, 15 min) in a buffer containing 20 mM Na-HEPES and 0.1 mM EDTA (pH 7.4, buffer 2). The resulting pellet was resuspended in buffer 2 and protein concentration was measured (BCA protein Assay, Pierce). The homogenate was kept cold during the whole procedure. The membranes were kept at −80° C. until use. Assay was performed in a 384 well Optiplate (PerkinElmer) in a total volume of 40 ul. Membranes were mixed with SPA beads. Final concentration of membranes 35 ng/μL final and Final concentration of SPA beads was 0.05 mg/well. Test-compounds were dissolved in DMSO and further diluted in assay buffer (50 mM Hepes, pH 7.4, 1 mM CaCl2, 5 mM MgCl₂, 0.1% OA and 0.02% Tween20). […] The final mixture was incubated for 120 min with shaking at 400 rpm at 25° C. prior to centrifugation (1500 rpm, 10 min). Samples were analyzed on TopCounter™ (Packard). The […] was calculated using (one site binding competition analysis) GraphPad Prism5 as a measure of receptor affinity.

B1: N^α1-[(4S)-4-carboxy-4-(19-carboxynonadecanoylamino)butanoyl]-[Arg17,Pro21,Pro27,Pro31,Glu35]-h-amylin (peptide)
peptide: {C20 diacid-γGlu}-KCNTATCATQRLANFLRHSSPNFGAIPSSTPVGSETY-NH2
modifications: disulfide 2-7
SMILES: CC[C@H](C)[C@H](NC(=O)[C@H](C)NC(=O)CNC(=O)[C@H](Cc1ccccc1)NC(=O)[C@H](CC(N)=O)NC(=O)[C@@H]1CCCN1C(=O)[C@H](CO)NC(=O)[C@H](CO)NC(=O)[C@H](Cc1c[nH]cn1)NC(=O)[C@H](CCCNC(=N)N)NC(=O)[C@H](CC(C)C)NC(=O)[C@H](Cc1ccccc1)NC(=O)[C@H](CC(N)=O)NC(=O)[C@H](C)NC(=O)[C@H](CC(C)C)NC(=O)[C@H](CCCNC(=N)N)NC(=O)[C@H](CCC(N)=O)NC(=O)[C@@H](NC(=O)[C@H](C)NC(=O)[C@@H]1CSSC[C@H](NC(=O)[C@H](CCCCN)NC(=O)CC[C@H](NC(=O)CCCCCCCCCCCCCCCCCCC(=O)O)C(=O)O)C(=O)N[C@@H](CC(N)=O)C(=O)N[C@@H]([C@@H](C)O)C(=O)N[C@@H](C)C(=O)N[C@@H]([C@@H](C)O)C(=O)N1)[C@@H](C)O)C(=O)N1CCC[C@H]1C(=O)N[C@@H](CO)C(=O)N[C@@H](CO)C(=O)N[C@H](C(=O)N1CCC[C@H]1C(=O)N[C@H](C(=O)NCC(=O)N[C@@H](CO)C(=O)N[C@@H](CCC(=O)O)C(=O)N[C@H](C(=O)N[C@@H](Cc1ccc(O)cc1)C(N)=O)[C@@H](C)O)C(C)C)[C@@H](C)O
notes: also called compound 28
Ratio hCT/hAmylin binding [1]: 20.5
IC50 [2]: 12500 pM

B3: N^α1-[(4S)-4-carboxy-4-(19-carboxynonadecanoylamino)butanoyl]-[Glu14,Arg17,Pro21,Pro25,Pro28,Pro29,Pro37]-h-amylin (peptide)
peptide: {C20 diacid-γGlu}-KCNTATCATQRLAEFLRHSSPNFGPILPPTNVGSNTP-NH2
modifications: disulfide 2-7
SMILES: CC[C@H](C)[C@H](NC(=O)[C@@H]1CCCN1C(=O)CNC(=O)[C@H](Cc1ccccc1)NC(=O)[C@H](CC(N)=O)NC(=O)[C@@H]1CCCN1C(=O)[C@H](CO)NC(=O)[C@H](CO)NC(=O)[C@H](Cc1c[nH]cn1)NC(=O)[C@H](CCCNC(=N)N)NC(=O)[C@H](CC(C)C)NC(=O)[C@H](Cc1ccccc1)NC(=O)[C@H](CCC(=O)O)NC(=O)[C@H](C)NC(=O)[C@H](CC(C)C)NC(=O)[C@H](CCCNC(=N)N)NC(=O)[C@H](CCC(N)=O)NC(=O)[C@@H](NC(=O)[C@H](C)NC(=O)[C@@H]1CSSC[C@H](NC(=O)[C@H](CCCCN)NC(=O)CC[C@H](NC(=O)CCCCCCCCCCCCCCCCCCC(=O)O)C(=O)O)C(=O)N[C@@H](CC(N)=O)C(=O)N[C@@H]([C@@H](C)O)C(=O)N[C@@H](C)C(=O)N[C@@H]([C@@H](C)O)C(=O)N1)[C@@H](C)O)C(=O)N[C@@H](CC(C)C)C(=O)N1CCC[C@H]1C(=O)N1CCC[C@H]1C(=O)N[C@H](C(=O)N[C@@H](CC(N)=O)C(=O)N[C@H](C(=O)NCC(=O)N[C@@H](CO)C(=O)N[C@@H](CC(N)=O)C(=O)N[C@H](C(=O)N1CCC[C@H]1C(N)=O)[C@@H](C)O)C(C)C)[C@@H](C)O
notes: also called compound 4
Ratio hCT/hAmylin binding [1]: 2.1
IC50 [2]: 688 pM

B4: N^α1-[(4S)-4-carboxy-4-(19-carboxynonadecanoylamino)butanoyl]-[Glu14,Arg17,Pro21,Pro25,Pro28,Pro29]-h-amylin (peptide)
peptide: {C20 diacid-γGlu}-KCNTATCATQRLAEFLRHSSPNFGPILPPTNVGSNTY-NH2
modifications: disulfide 2-7
SMILES: CC[C@H](C)[C@H](NC(=O)[C@@H]1CCCN1C(=O)CNC(=O)[C@H](Cc1ccccc1)NC(=O)[C@H](CC(N)=O)NC(=O)[C@@H]1CCCN1C(=O)[C@H](CO)NC(=O)[C@H](CO)NC(=O)[C@H](Cc1c[nH]cn1)NC(=O)[C@H](CCCNC(=N)N)NC(=O)[C@H](CC(C)C)NC(=O)[C@H](Cc1ccccc1)NC(=O)[C@H](CCC(=O)O)NC(=O)[C@H](C)NC(=O)[C@H](CC(C)C)NC(=O)[C@H](CCCNC(=N)N)NC(=O)[C@H](CCC(N)=O)NC(=O)[C@@H](NC(=O)[C@H](C)NC(=O)[C@@H]1CSSC[C@H](NC(=O)[C@H](CCCCN)NC(=O)CC[C@H](NC(=O)CCCCCCCCCCCCCCCCCCC(=O)O)C(=O)O)C(=O)N[C@@H](CC(N)=O)C(=O)N[C@@H]([C@@H](C)O)C(=O)N[C@@H](C)C(=O)N[C@@H]([C@@H](C)O)C(=O)N1)[C@@H](C)O)C(=O)N[C@@H](CC(C)C)C(=O)N1CCC[C@H]1C(=O)N1CCC[C@H]1C(=O)N[C@H](C(=O)N[C@@H](CC(N)=O)C(=O)N[C@H](C(=O)NCC(=O)N[C@@H](CO)C(=O)N[C@@H](CC(N)=O)C(=O)N[C@H](C(=O)N[C@@H](Cc1ccc(O)cc1)C(N)=O)[C@@H](C)O)C(C)C)[C@@H](C)O
notes: also called compound 6
Ratio hCT/hAmylin binding [1]: 20
IC50 [2]: 20000 pM

These reach a lower IC50 [2]. Values come first.

Ratio hCT/hAmylin binding [1]: 1.4
IC50 [2]: 537 pM
B2: N^α1-[(4S)-4-carboxy-4-(19-carboxynonadecanoylamino)butanoyl]-[Glu14,Arg17,Pro21,Pro26,Pro37]-h-amylin (peptide)
peptide: {C20 diacid-γGlu}-KCNTATCATQRLAEFLRHSSPNFGAPLSSTNVGSNTP-NH2
modifications: disulfide 2-7
SMILES: CC(C)C[C@H](NC(=O)[C@H](CCCNC(=N)N)NC(=O)[C@H](CCC(N)=O)NC(=O)[C@@H](NC(=O)[C@H](C)NC(=O)[C@@H]1CSSC[C@H](NC(=O)[C@H](CCCCN)NC(=O)CC[C@H](NC(=O)CCCCCCCCCCCCCCCCCCC(=O)O)C(=O)O)C(=O)N[C@@H](CC(N)=O)C(=O)N[C@@H]([C@@H](C)O)C(=O)N[C@@H](C)C(=O)N[C@@H]([C@@H](C)O)C(=O)N1)[C@@H](C)O)C(=O)N[C@@H](C)C(=O)N[C@@H](CCC(=O)O)C(=O)N[C@@H](Cc1ccccc1)C(=O)N[C@@H](CC(C)C)C(=O)N[C@@H](CCCNC(=N)N)C(=O)N[C@@H](Cc1c[nH]cn1)C(=O)N[C@@H](CO)C(=O)N[C@@H](CO)C(=O)N1CCC[C@H]1C(=O)N[C@@H](CC(N)=O)C(=O)N[C@@H](Cc1ccccc1)C(=O)NCC(=O)N[C@@H](C)C(=O)N1CCC[C@H]1C(=O)N[C@@H](CC(C)C)C(=O)N[C@@H](CO)C(=O)N[C@@H](CO)C(=O)N[C@H](C(=O)N[C@@H](CC(N)=O)C(=O)N[C@H](C(=O)NCC(=O)N[C@@H](CO)C(=O)N[C@@H](CC(N)=O)C(=O)N[C@H](C(=O)N1CCC[C@H]1C(N)=O)[C@@H](C)O)C(C)C)[C@@H](C)O
notes: also called compound 5

Ratio hCT/hAmylin binding [1]: 1.2
IC50 [2]: 99 pM
B5: N^α1-[(4S)-4-carboxy-4-(19-carboxynonadecanoylamino)butanoyl]-[Asp14,Arg17,Pro21,Pro27,Pro37]-h-amylin (peptide)
peptide: {C20 diacid-γGlu}-KCNTATCATQRLADFLRHSSPNFGAIPSSTNVGSNTP-NH2
modifications: disulfide 2-7
SMILES: CC[C@H](C)[C@H](NC(=O)[C@H](C)NC(=O)CNC(=O)[C@H](Cc1ccccc1)NC(=O)[C@H](CC(N)=O)NC(=O)[C@@H]1CCCN1C(=O)[C@H](CO)NC(=O)[C@H](CO)NC(=O)[C@H](Cc1c[nH]cn1)NC(=O)[C@H](CCCNC(=N)N)NC(=O)[C@H](CC(C)C)NC(=O)[C@H](Cc1ccccc1)NC(=O)[C@H](CC(=O)O)NC(=O)[C@H](C)NC(=O)[C@H](CC(C)C)NC(=O)[C@H](CCCNC(=N)N)NC(=O)[C@H](CCC(N)=O)NC(=O)[C@@H](NC(=O)[C@H](C)NC(=O)[C@@H]1CSSC[C@H](NC(=O)[C@H](CCCCN)NC(=O)CC[C@H](NC(=O)CCCCCCCCCCCCCCCCCCC(=O)O)C(=O)O)C(=O)N[C@@H](CC(N)=O)C(=O)N[C@@H]([C@@H](C)O)C(=O)N[C@@H](C)C(=O)N[C@@H]([C@@H](C)O)C(=O)N1)[C@@H](C)O)C(=O)N1CCC[C@H]1C(=O)N[C@@H](CO)C(=O)N[C@@H](CO)C(=O)N[C@H](C(=O)N[C@@H](CC(N)=O)C(=O)N[C@H](C(=O)NCC(=O)N[C@@H](CO)C(=O)N[C@@H](CC(N)=O)C(=O)N[C@H](C(=O)N1CCC[C@H]1C(N)=O)[C@@H](C)O)C(C)C)[C@@H](C)O
notes: also called compound 10
